Reference: patent US20220073620A1 (CHANGCHUN GENESCIENCE PHARMACEUTICAL, published 2022)
One block for each binder: values may come before it.

Key:
human VEGF-A-His = biological target: T1, human VEGF-A-His (human, UniProt P15692 207-395); assay: SPR (Biacore T200), human VEGF-A-His coupled to the chip, fusion protein flowed over
T1 construct: also called hVEGF-A
T1 sequence: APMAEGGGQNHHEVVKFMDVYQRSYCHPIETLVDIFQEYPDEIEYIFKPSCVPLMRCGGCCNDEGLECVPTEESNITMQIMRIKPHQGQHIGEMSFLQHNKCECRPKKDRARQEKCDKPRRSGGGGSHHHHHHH
Experimental: The affinities of FabT and FTF were detected by Biacore T200 instrument. The specific protocols were as follows. Human PD-L1-His (constructed by GeneScience, SEQ ID NO: 11) and human VEGF-A-His (constructed by GeneScience, SEQ ID NO: 13) were coupled to CMS biosensor chip (GE), and then the antibodies of different concentrations were flowed through the chip at a flow rate of 30 μL/min. The binding between the candidate antibody and antigen was performed with a binding time of 120 s and a dissociation time of 300 s. The kinetic fitting was performed using BIAevalution software (GE), and the results of affinity constants were obtained as shown in Table 6 and Table 7.

Human PD-L1-His = biological target: T2, Human PD-L1-His (human, UniProt Q9NZQ7 19-238); assay: bridging ELISA, hPDL1-His and hVEGF121b-mFc as the two antigens; control diluted from 10 ug/ml
T2 construct: also called hPD-L1
T2 sequence (Q9NZQ7 19-238 limits assumed): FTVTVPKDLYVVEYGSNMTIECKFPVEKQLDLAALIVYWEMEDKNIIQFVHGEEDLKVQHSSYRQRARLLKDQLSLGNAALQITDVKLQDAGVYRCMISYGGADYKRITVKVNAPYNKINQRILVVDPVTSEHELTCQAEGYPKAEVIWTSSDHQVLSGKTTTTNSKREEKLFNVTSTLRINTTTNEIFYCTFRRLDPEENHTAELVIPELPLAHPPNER

VEGFA protein = VEGFA protein (UniProt P15692-4 27-191, limits assumed); assay: cell-based or functional assay
[1] = biological target: PDL1 on the surface of CHO-PDL1-CD3L cells (UniProt Q9NZQ7 19-290, limits assumed); assay: cell-based or functional assay
PDL1 on the surface of CHO-PDL1-CD3L cells, sequence (Q9NZQ7 19-290 limits assumed): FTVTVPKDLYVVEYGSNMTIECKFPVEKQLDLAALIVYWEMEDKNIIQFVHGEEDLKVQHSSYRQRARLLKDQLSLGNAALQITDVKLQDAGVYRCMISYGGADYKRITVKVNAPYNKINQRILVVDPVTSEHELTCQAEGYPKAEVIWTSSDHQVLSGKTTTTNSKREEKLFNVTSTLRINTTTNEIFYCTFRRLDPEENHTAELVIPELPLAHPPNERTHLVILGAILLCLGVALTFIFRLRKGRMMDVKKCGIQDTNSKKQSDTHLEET

Kd (human VEGF-A-His): 1.51 nM
koff (human VEGF-A-His): 0.000932 s⁻¹
kon (human VEGF-A-His): 617000 M⁻¹ s⁻¹
binding result (Human PD-L1-His): no binding (tested: 10 ug/ml)
IC50, luciferase reporter in NFAT-RE-Luc2P-KDR-HEK293 cells stimulated with 50 ng/ml VEGFA (VEGFA protein): 0.75 nM
B1: Eylea positive fusion protein (Fc fusion, not shown: a dimerising Fc or GST)
chain: SDTGRPFVEMYSEIPEIIHMTEGRELVIPCRVTSPNITVTLKKFPLDTLIPDGKRIIWDSRKGFIISNATYKEIGLLTCEATVNGHLYKTNYLTHRQTNTIIDVVLSPSHGIELSVGEKLVLNCTARTELNVGIDFNWEYPSSKHQHKKLVNRDLKTQSGSEMKKFLSTLTIDGVTRSDQGLYTCAASSGLMTKKNSTFVRVHEK
notes: also called control molecule Eylea

EC50, luciferase reporter in Jurkat-PD1-NFAT cells co-cultured with CHO-PDL1-CD3L cells [1]: 3.55 nM
B2: anti-human PD-L1 humanized monoclonal antibody 047 Ab-6 (antibody, V domains shown)
VH: EVQLVESGGGLVQPGGSLRLSCAASYFPFSDSWIHWVRQAPGKGLEWVAWISPYGGSSYYADSVQDRFTISADTSKNTAYLQMNSLRAEDTAVYYCAKRHWPGGFDHWGQGTLVTVSS
VL: DIQMTQSPSSLSASVGDRVTITCSASQDVTTAVAWYQQKPGKAPKLLIYSASFPYRGVPSRFSGSGSGTDFTLTISSLQPEDFATYYCQQYMYHPSTFGQGTKVEIK
